Experimental data as given in article PMC7353165 (Molecular Biology of the Cell, 2020).

Target: T1, WT-EphB1-YFP (mouse EphB1 C-terminal YFP-tagged) (mouse, UniProt Q8CBF3 18-984)
T1 sequence (looked up): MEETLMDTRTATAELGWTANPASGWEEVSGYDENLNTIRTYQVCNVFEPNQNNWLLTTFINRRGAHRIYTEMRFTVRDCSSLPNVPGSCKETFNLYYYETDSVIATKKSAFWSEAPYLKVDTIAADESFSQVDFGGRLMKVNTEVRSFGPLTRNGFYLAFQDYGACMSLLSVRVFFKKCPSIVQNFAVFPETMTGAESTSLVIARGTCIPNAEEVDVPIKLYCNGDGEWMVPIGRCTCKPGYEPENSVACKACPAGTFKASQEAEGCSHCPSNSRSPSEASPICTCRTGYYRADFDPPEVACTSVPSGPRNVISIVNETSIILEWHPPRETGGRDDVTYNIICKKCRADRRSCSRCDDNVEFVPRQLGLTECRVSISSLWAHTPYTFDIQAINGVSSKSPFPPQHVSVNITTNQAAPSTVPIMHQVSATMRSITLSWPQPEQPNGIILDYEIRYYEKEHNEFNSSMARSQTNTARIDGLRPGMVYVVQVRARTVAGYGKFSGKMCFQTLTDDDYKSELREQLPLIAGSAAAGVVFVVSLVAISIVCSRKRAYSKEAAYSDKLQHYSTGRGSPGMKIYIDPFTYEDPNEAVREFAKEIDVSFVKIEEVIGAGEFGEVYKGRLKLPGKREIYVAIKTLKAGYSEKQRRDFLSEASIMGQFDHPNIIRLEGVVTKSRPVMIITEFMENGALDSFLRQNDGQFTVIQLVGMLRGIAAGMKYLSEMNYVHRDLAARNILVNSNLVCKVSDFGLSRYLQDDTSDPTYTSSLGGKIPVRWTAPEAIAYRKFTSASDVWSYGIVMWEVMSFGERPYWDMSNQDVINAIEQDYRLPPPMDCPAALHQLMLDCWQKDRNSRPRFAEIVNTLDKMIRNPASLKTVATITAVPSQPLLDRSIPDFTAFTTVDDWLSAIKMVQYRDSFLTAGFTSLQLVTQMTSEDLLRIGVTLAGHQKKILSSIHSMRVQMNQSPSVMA
Assay: FRET or BRET

B1: WT-Cav-1-CFP (C-terminal CFP-tagged Cav-1) (natural protein, UniProt Q03135 1-178, looked up)
chain: MSGGKYVDSEGHLYTVPIREQGNIYKPNNKAMADELSEKQVYDAHTKEIDLVNRDPKHLNDDVVKIDFEDVIAEPEGTHSFDGIWKASFTTFTVTKYWFYRLLSALFGIPMALIWGIYFAILSFLHIWAVVPCIKSFLIEIQCISRVYSIYVHTVCDPLFEAVGKIFSNVRINLQKEI
- fold FRET intensity against EphB1^∆808-815-YFP with WT-Cav-1-CFP: 4 fold
